# Results: patent publication US20250066451A1
# Tests used:
# [1] = molecular target: IL-1R-I on cells (TF-1 cells, NHDF cells, human whole blood) (human) (UniProt P14778); assay: cell-based or functional assay
# [2] = molecular target: human IL-1R-I on Normal Human Dermal Fibroblasts (NHDF) cells (human) (UniProt P14778); assay: cell-based or functional assay
# Chain of human IL-1R-I on Normal Human Dermal Fibroblasts (NHDF) cells (human) (P14778 18-569): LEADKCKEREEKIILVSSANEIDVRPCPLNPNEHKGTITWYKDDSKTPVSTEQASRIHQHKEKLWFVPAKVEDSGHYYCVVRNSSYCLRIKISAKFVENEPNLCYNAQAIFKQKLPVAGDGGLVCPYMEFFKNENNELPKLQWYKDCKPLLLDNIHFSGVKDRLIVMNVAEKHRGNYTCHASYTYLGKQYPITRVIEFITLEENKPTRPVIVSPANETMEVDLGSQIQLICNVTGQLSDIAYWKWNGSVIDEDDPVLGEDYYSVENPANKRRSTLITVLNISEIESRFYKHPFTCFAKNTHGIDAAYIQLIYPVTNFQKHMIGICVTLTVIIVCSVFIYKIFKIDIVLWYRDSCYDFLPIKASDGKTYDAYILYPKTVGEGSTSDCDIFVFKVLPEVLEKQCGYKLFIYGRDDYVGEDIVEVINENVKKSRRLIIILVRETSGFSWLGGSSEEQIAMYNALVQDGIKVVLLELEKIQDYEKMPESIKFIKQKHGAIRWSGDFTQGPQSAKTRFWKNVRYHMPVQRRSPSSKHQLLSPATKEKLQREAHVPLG
# Chain of IL-1R-I on cells (TF-1 cells, NHDF cells, human whole blood) (human) (P14778 18-569): as above
Substance,"IC50, inhibition of IL-1B induced proliferation of TF-1 cells [1]","median IC50, IL-1B induced IL-6 release in human whole blood [1]","median IC50, IL-1B induced IL-6 release in human whole blood (legend of FIG. 3) [1]","IC50 (pM), inhibition of IL-1B induced IL-6 release in NHDF cells [2]"
"anakinra (Kineret, Sobi) (from UniProt P18510 26-177) (ligand)",0.05 nM,0.31 nM,0.3 nM,
anakinra (from UniProt P18510 26-177) (ligand),,,,70 pM
